The numbers were not newly measured in publication PMC9161494, which cites them from elsewhere.

The Kd is the equilibrium constant for the complex coming apart.

In this series the target is EGFR (Homo sapiens) (UniProt P00533).

PEPDG278D (from UniProt P12955): the Kd is 17.7 nM.
